Assay results reported in US20230212306A1 (Daiichi Sankyo, published 2023).

T1: mouse TLR7-Flag-His×6, expressed in Ba/F3 cells (mouse, UniProt P58681 27-1050)
T1 construct: cells permeabilised with 0.1% saponin; not shown: Flag-His×6 tag added to the C-terminus
T1 sequence: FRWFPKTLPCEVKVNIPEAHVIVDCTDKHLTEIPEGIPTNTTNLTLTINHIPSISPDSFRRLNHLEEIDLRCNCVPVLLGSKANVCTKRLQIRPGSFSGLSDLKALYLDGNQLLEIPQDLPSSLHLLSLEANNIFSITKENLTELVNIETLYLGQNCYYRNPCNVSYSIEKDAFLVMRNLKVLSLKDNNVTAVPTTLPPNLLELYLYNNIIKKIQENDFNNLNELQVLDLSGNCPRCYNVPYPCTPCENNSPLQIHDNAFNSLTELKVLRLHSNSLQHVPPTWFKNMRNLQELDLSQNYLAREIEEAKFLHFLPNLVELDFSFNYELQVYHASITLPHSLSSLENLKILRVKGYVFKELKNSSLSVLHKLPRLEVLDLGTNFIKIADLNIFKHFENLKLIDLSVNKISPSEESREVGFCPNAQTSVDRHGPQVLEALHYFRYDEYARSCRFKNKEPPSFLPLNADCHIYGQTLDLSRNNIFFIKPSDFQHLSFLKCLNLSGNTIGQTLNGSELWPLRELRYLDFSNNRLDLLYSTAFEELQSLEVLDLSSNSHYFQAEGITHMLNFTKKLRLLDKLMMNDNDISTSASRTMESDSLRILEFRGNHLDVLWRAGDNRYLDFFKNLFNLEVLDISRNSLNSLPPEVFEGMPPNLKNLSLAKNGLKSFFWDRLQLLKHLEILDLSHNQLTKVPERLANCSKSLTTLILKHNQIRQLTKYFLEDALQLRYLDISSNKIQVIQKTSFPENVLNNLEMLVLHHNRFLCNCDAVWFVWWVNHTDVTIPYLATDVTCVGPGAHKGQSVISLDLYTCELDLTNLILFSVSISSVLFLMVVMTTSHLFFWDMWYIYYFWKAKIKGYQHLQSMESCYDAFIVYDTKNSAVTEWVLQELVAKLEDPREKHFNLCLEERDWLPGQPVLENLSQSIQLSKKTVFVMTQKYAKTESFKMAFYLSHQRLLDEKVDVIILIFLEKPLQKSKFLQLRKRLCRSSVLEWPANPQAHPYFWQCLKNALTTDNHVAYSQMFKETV

T2: monkey TLR7-Flag-His×6, expressed in Ba/F3 cells (monkey, UniProt Q9NYK1 27-1049 (human entry))
T2 construct: cells permeabilised with 0.1% saponin; not shown: Flag-His×6 tag added to the C-terminus
T2 chain: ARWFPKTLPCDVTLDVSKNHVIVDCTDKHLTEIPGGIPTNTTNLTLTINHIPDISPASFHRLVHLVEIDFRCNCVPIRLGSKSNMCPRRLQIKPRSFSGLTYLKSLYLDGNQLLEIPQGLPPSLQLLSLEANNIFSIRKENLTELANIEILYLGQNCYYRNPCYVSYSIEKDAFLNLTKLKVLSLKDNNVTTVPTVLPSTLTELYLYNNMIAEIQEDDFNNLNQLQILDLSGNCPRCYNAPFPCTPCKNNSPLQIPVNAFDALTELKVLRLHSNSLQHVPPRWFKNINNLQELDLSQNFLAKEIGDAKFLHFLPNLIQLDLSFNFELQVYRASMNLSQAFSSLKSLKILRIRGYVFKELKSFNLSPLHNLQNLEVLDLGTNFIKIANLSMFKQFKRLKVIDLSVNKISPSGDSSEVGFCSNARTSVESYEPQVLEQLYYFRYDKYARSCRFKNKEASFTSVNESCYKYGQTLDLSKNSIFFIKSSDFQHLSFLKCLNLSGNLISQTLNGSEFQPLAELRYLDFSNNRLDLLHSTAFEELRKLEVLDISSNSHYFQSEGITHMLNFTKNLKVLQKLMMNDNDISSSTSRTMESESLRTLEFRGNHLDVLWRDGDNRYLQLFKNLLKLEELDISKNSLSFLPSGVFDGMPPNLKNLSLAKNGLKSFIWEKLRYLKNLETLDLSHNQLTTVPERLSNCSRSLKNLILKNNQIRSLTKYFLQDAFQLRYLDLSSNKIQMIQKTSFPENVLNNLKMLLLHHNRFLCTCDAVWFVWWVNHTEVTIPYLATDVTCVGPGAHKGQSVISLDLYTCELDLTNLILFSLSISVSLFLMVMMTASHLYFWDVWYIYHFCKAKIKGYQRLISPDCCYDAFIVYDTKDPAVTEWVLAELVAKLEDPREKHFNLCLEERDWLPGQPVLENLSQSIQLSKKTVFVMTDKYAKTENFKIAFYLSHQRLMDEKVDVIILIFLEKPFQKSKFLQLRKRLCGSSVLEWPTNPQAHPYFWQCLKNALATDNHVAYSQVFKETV

B1: FAN2 antibody (antibody, IgG1, V domains shown)
VH: QVQLKESGPGLVAPSQSLSITCTVSGFSLTGYGVNWVRQPPGKGLEWLGMIWGDGSTDYNSALKSRLSIRKDNSKSQVFLKMNSLQTDDTARYYCARDKGYDGYYYAMDYWGQGTSVTVSS
VL: DIQMTQSPASLSASVGETVTITCRASENIYSYLAWYQQKQGKSPQLLVYDAKTLAEGVPSRFSGSGSGTQFSLKINSLQPEDFGSYYCQHHYGIPYTFGGGTKLEIK
notes: also called mouse anti-human TLR7 antibody (FAN2)
B2: AT01 antibody (antibody, IgG1, V domains shown)
VH: QVQLQQPGAELVKPGASVNLSCKASGYTFTNNWLHWVKQRPGRGLEWIGDIYPSNGRTNYNEQFKTKATLTVDKSSSTAYMQLSSLTSEDSAVYFCARERGYFDYWGQGTALTVSS
VL: DIQMTQSPSSLSTSLGGKVTITCKASQDINKYIAWYQHKPGKGPRLLIHYTSTLQPGIPSRFSGSGSGRDYSFSISNLEPEDIATYYCLQYDYLLTFGAGTKLELK
notes: also called mouse anti-human TLR7 antibody (AT01)
B3: NB7 antibody (antibody, IgG1, V domains shown)
VH: DVQLQESGPGLVKPSQSLSLTCTVTGYSITSDYAWNWIRQFPGNKLEWMGHISYRGNTNYNPSLKSRISITRDTSKNQFFLQLNSVTTEDTATYYCASWNYYGYVDYAMDYWGQGTSVTVSS
VL: DIQMTQTPSSLSASLGDRVTISCRASQDISNYLNWYQQKPDGTVKLLIYYTSRLHSGVPSRFSGSGSGTDYSLTINNLEQEDIATYFCQQGDTFPTFGGGTKLEIK
notes: also called mouse anti-human TLR7 antibody (NB7)

Key:
[1] = molecular target: T1, mouse TLR7-Flag-His×6, expressed in …; assay: flow cytometry (MFI) on saponin-permeabilised Ba/F3 cells expressing mouse TLR7-Flag-His×6
Excerpt: (§1) The Ba/F3 cell line expressing human TLR7-Flag-His×6/human Unc93B1-HA×2 established above in 1)-1-1, the Ba/F3 cell line expressing mouse TLR7-Flag-His×6 established above in 2)-1-1, the Ba/F3 cell line expressing rat TLR7-Flag-His×6×2 established above in 2)-1-2, and the Ba/F3 cell line expressing monkey TLR7-Flag-His×6 established above in 2)-1-3 were subjected to membrane permeation with 0.1% Saponin and stained using AT01 antibody, NB7 antibody, and FAN2 antibody, and a secondary antibody, Goat anti-mouse IgG (H+L)-PE (eBioscience). The binding selectivity of each antibody was evaluated by comparing the average fluorescence intensity (MFI) based on flow cytometry analysis.

[2] = molecular target: T2, monkey TLR7-Flag-His×6, expressed in …; assay: flow cytometry (MFI) on saponin-permeabilised Ba/F3 cells expressing monkey TLR7-Flag-His×6
Excerpt: as §1

Row | Binder | binding result [1] | binding result [2]
1 | B1 | no binding | binds
2 | B2 | no binding | binds
3 | B3 | no binding | binds
